According to article PMC8298264, “Function of cofactor Akirin2 in the regulation of gene expression in model human neutrophil-like HL60 cells” (Bioscience Reports, 2021):

B1: sp¦P20340¦RAB6A_HUMAN (protein, UniProt P20340 2-208, looked up)
Ras-related protein Rab-6A: STGGDFGNPLRKFKLVFLGEQSVGKTSLITRFMYDSFDNTYQATIGIDFLSKTMYLEDRTVRLQLWDTAGQERFRSLIPSYIRDSTVAVVVYDITNVNSFQQTTKWIDDVRTERGSDVIIMLVGNKTDLADKRQVSIEEGERKAKELNVMFIETSAKAGYNVKQLFRRVAAALPGMESTQDRSREDMIDIKLEKPQEQPVSEGGCSC
B2: sp¦O75746¦CMC1_HUMAN (protein, UniProt O75746 2-678, looked up)
Electrogenic …: AVKVQTTKRGDPHELRNIFLQYASTEVDGERYMTPEDFVQRYLGLYNDPNSNPKIVQLLAGVADQTKDGLISYQEFLAFESVLCAPDSMFIVAFQLFDKSGNGEVTFENVKEIFGQTIIHHHIPFNWDCEFIRLHFGHNRKKHLNYTEFTQFLQELQLEHARQAFALKDKSKSGMISGLDFSDIMVTIRSHMLTPFVEENLVSAAGGSISHQVSFSYFNAFNSLLNNMELVRKIYSTLAGTRKDVEVTKEEFAQSAIRYGQVTPLEIDILYQLADLYNASGRLTLADIERIAPLAEGALPYNLAELQRQQSPGLGRPIWLQIAESAYRFTLGSVAGAVGATAVYPIDLVKTRMQNQRGSGSVVGELMYKNSFDCFKKVLRYEGFFGLYRGLIPQLIGVAPEKAIKLTVNDFVRDKFTRRDGSVPLPAEVLAGGCAGGSQVIFTNPLEIVKIRLQVAGEITTGPRVSALNVLRDLGIFGLYKGAKACFLRDIPFSAIYFPVYAHCKLLLADENGHVGGLNLLAAGAMAGVPAASLVTPADVIKTRLQVAARAGQTTYSGVIDCFRKILREEGPSAFWKGTAARVFRSSPQFGVTLVTYELLQRWFYIDFGGLKPAGSEPTPKSRIADLPPANPDHIGGYRLATATFAGIENKFGLYLPKFKSPSVAVVQPKAAVAATQ
B3: sp¦Q02218¦ODO1_HUMAN (protein, UniProt Q02218 41-1023, looked up)
2-oxoglutarate dehydrogenase …: SAPVAAEPFLSGTSSNYVEEMYCAWLENPKSVHKSWDIFFRNTNAGAPPGTAYQSPLPLSRGSLAAVAHAQSLVEAQPNVDKLVEDHLAVQSLIRAYQIRGHHVAQLDPLGILDADLDSSVPADIISSTDKLGFYGLDESDLDKVFHLPTTTFIGGQESALPLREIIRRLEMAYCQHIGVEFMFINDLEQCQWIRQKFETPGIMQFTNEEKRTLLARLVRSTRFEEFLQRKWSSEKRFGLEGCEVLIPALKTIIDKSSENGVDYVIMGMPHRGRLNVLANVIRKELEQIFCQFDSKLEAADEGSGDVKYHLGMYHRRINRVTDRNITLSLVANPSHLEAADPVVMGKTKAEQFYCGDTEGKKVMSILLHGDAAFAGQGIVYETFHLSDLPSYTTHGTVHVVVNNQIGFTTDPRMARSSPYPTDVARVVNAPIFHVNSDDPEAVMYVCKVAAEWRSTFHKDVVVDLVCYRRNGHNEMDEPMFTQPLMYKQIRKQKPVLQKYAELLVSQGVVNQPEYEEEISKYDKICEEAFARSKDEKILHIKHWLDSPWPGFFTLDGQPRSMSCPSTGLTEDILTHIGNVASSVPVENFTIHGGLSRILKTRGEMVKNRTVDWALAEYMAFGSLLKEGIHIRLSGQDVERGTFSHRHHVLHDQNVDKRTCIPMNHLWPNQAPYTVCNSSLSEYGVLGFELGFAMASPNALVLWEAQFGDFHNTAQCIIDQFICPGQAKWVRQNGIVLLLPHGMEGMGPEHSSARPERFLQMCNDDPDVLPDLKEANFDINQLYDCNWVVVNCSTPGNFFHVLRRQILLPFRKPLIIFTPKSLLRHPEARSSFDEMLPGTHFQRVIPEDGPAAQNPENVKRLLFCTGKVYYDLTRERKARDMVGQVAITRIEQLSPFPFDLLLKEVQKYPNAELAWCQEEHKNQGYYDYVKPRLRTTISRAKPVWYAGRDPAAAPATGNKKTHLTELQRLLDTAFDLDVFKNFS
B4: sp¦Q9BTT0¦AN32E_HUMAN (protein, UniProt Q9BTT0 1-268, looked up)
Acidic leucine-rich nuclear …: MEMKKKINLELRNRSPEEVTELVLDNCLCVNGEIEGLNDTFKELEFLSMANVELSSLARLPSLNKLRKLELSDNIISGGLEVLAEKCPNLTYLNLSGNKIKDLSTVEALQNLKNLKSLDLFNCEITNLEDYRESIFELLQQITYLDGFDQEDNEAPDSEEEDDEDGDEDDEEEEENEAGPPEGYEEEEEEEEEEDEDEDEDEDEAGSELGEGEEEVGLSYLMKEEIQDEEDDDDYVEEGEEEEEEEEGGLRGEKRKRDAEDDGEEEDD
B5: sp¦Q8WU39¦MZB1_HUMAN (protein, UniProt Q8WU39 23-189, looked up)
Marginal zone B- and …: DRAPLTATAPQLDDEEMYSAHMPAHLRCDACRAVAYQMWQNLAKAETKLHTSNSGGRRELSELVYTDVLDRSCSRNWQDYGVREVDQVKRLTGPGLSEGPEPSISVMVTGGPWPTRLSRTCLHYLGEFGEDQIYEAHQQGRGALEALLCGGPQGACSEKVSATREEL
B6: sp¦Q9UGP8¦SEC63_HUMAN (protein, UniProt Q9UGP8 1-760, looked up)
Translocation protein SEC63 …: MAGQQFQYDDSGNTFFYFLTSFVGLIVIPATYYLWPRDQNAEQIRLKNIRKVYGRCMWYRLRLLKPQPNIIPTVKKIVLLAGWALFLFLAYKVSKTDREYQEYNPYEVLNLDPGATVAEIKKQYRLLSLKYHPDKGGDEVMFMRIAKAYAALTDEESRKNWEEFGNPDGPQATSFGIALPAWIVDQKNSILVLLVYGLAFMVILPVVVGSWWYRSIRYSGDQILIRTTQIYTYFVYKTRNMDMKRLIMVLAGASEFDPQYNKDATSRPTDNILIPQLIREIGSINLKKNEPPLTCPYSLKARVLLLSHLARMKIPETLEEDQQFMLKKCPALLQEMVNVICQLIVMARNREEREFRAPTLASLENCMKLSQMAVQGLQQFKSPLLQLPHIEEDNLRRVSNHKKYKIKTIQDLVSLKESDRHTLLHFLEDEKYEEVMAVLGSFPYVTMDIKSQVLDDEDSNNITVGSLVTVLVKLTRQTMAEVFEKEQSICAAEEQPAEDGQGETNKNRTKGGWQQKSKGPKKTAKSKKKKPLKKKPTPVLLPQSKQQKQKQANGVVGNEAAVKEDEEEVSDKGSDSEEEETNRDSQSEKDDGSDRDSDREQDEKQNKDDEAEWQELQQSIQRKERALLETKSKITHPVYSLYFPEEKQEWWWLYIADRKEQTLISMPYHVCTLKDTEEVELKFPAPGKPGNYQYTVFLRSDSYMGLDQIKPLKLEVHEAKPVPENHPQWDTAIEGDEDQEDSEGFEDSFEEEEEEEEDDD
B7: sp¦Q9Y276¦BCS1_HUMAN (protein, UniProt Q9Y276 2-419, looked up)
Mitochondrial chaperone BCS1: PLSDFILALKDNPYFGAGFGLVGVGTALALARKGVQLGLVAFRRHYMITLEVPARDRSYAWLLSWLTRHSTRTQHLSVETSYLQHESGRISTKFEFVPSPGNHFIWYRGKWIRVERSREMQMIDLQTGTPWESVTFTALGTDRKVFFNILEEARELALQQEEGKTVMYTAVGSEWRPFGYPRRRRPLNSVVLQQGLADRIVRDVQEFIDNPKWYTDRGIPYRRGYLLYGPPGCGKSSFITALAGELEHSICLLSLTDSSLSDDRLNHLLSVAPQQSLVLLEDVDAAFLSRDLAVENPVKYQGLGRLTFSGLLNALDGVASTEARIVFMTTNHVDRLDPALIRPGRVDLKEYVGYCSHWQLTQMFQRFYPGQAPSLAENFAEHVLRATNQISPAQVQGYFMLYKNDPVGAIHNAESLRR
B8: sp¦Q9UHD1¦CHRD1_HUMAN (protein, UniProt Q9UHD1 2-332, looked up)
Cysteine and histidine-rich …: ALLCYNRGCGQRFDPETNSDDACTYHPGVPVFHDALKGWSCCKRRTTDFSDFLSIVGCTKGRHNSEKPPEPVKPEVKTTEKKELCELKPKFQEHIIQAPKPVEAIKRPSPDEPMTNLELKISASLKQALDKLKLSSGNEENKKEEDNDEIKIGTSCKNGGCSKTYQGLESLEEVCVYHSGVPIFHEGMKYWSCCRRKTSDFNTFLAQEGCTKGKHMWTKKDAGKKVVPCRHDWHQTGGEVTISVYAKNSLPELSRVEANSTLLNVHIVFEGEKEFDQNVKLWGVIDVKRSYVTMTATKIEITMRKAEPMQWASLELPAAKKQEKQKDATTD
B9: Alpha-2-macroglobulin (protein, UniProt P01023 24-1474, looked up)
Alpha-2-macroglobulin: SVSGKPQYMVLVPSLLHTETTEKGCVLLSYLNETVTVSASLESVRGNRSLFTDLEAENDVLHCVAFAVPKSSSNEEVMFLTVQVKGPTQEFKKRTTVMVKNEDSLVFVQTDKSIYKPGQTVKFRVVSMDENFHPLNELIPLVYIQDPKGNRIAQWQSFQLEGGLKQFSFPLSSEPFQGSYKVVVQKKSGGRTEHPFTVEEFVLPKFEVQVTVPKIITILEEEMNVSVCGLYTYGKPVPGHVTVSICRKYSDASDCHGEDSQAFCEKFSGQLNSHGCFYQQVKTKVFQLKRKEYEMKLHTEAQIQEEGTVVELTGRQSSEITRTITKLSFVKVDSHFRQGIPFFGQVRLVDGKGVPIPNKVIFIRGNEANYYSNATTDEHGLVQFSINTTNVMGTSLTVRVNYKDRSPCYGYQWVSEEHEEAHHTAYLVFSPSKSFVHLEPMSHELPCGHTQTVQAHYILNGGTLLGLKKLSFYYLIMAKGGIVRTGTHGLLVKQEDMKGHFSISIPVKSDIAPVARLLIYAVLPTGDVIGDSAKYDVENCLANKVDLSFSPSQSLPASHAHLRVTAAPQSVCALRAVDQSVLLMKPDAELSASSVYNLLPEKDLTGFPGPLNDQDNEDCINRHNVYINGITYTPVSSTNEKDMYSFLEDMGLKAFTNSKIRKPKMCPQLQQYEMHGPEGLRVGFYESDVMGRGHARLVHVEEPHTETVRKYFPETWIWDLVVVNSAGVAEVGVTVPDTITEWKAGAFCLSEDAGLGISSTASLRAFQPFFVELTMPYSVIRGEAFTLKATVLNYLPKCIRVSVQLEASPAFLAVPVEKEQAPHCICANGRQTVSWAVTPKSLGNVNFTVSAEALESQELCGTEVPSVPEHGRKDTVIKPLLVEPEGLEKETTFNSLLCPSGGEVSEELSLKLPPNVVEESARASVSVLGDILGSAMQNTQNLLQMPYGCGEQNMVLFAPNIYVLDYLNETQQLTPEIKSKAIGYLNTGYQRQLNYKHYDGSYSTFGERYGRNQGNTWLTAFVLKTFAQARAYIFIDEAHITQALIWLSQRQKDNGCFRSSGSLLNNAIKGGVEDEVTLSAYITIALLEIPLTVTHPVVRNALFCLESAWKTAQEGDHGSHVYTKALLAYAFALAGNQDKRKEVLKSLNEEAVKKDNSVHWERPQKPKAPVGHFYEPQAPSAEVEMTSYVLLAYLTAQPAPTSEDLTSATNIVKWITKQQNAQGGFSSTQDTVVALHALSKYGAATFTRTGKAAQVTIQSSGTFSSKFQVDNNNRLLLQQVSLPELPGEYSMKVTGEGCVYLQTSLKYNILPEKEEFPFALGVQTLPQTCDEPKAHTSFQISLSVSYTGSRSASNMAIVDVKMVSGFIPLKPTVKMLERSNHVSRTEVSSNHVLIYLDKVSNQTLSLFFTVLQDVPVRDLKPAIVKVYDYYETDEFAIAEYNAPCSKDLGNA

The molecules below were run on human HL60 cells (assay: SWATH-MS proteomics, differential protein representation, akirin2 KO vs WT HL60 cells). Details: KO vs WT HL60 cells; sheet "Under-represented in KO".
Assay type: cell-based
Summary of the method: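 Proteins from WT and akirin2 KO HL60 cells (n=3 biological replicates) were FASP trypsin-digested and analyzed by SWATH-MS DIA with variable windows against an IDA-derived spectral library. Identifications at 1% global FDR; quantities normalized to total area sums of all detected proteins.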
In the case of B1, the “Fold Change” value is reported as 0.5176 and the “Log (Fold Change)” value is reported as -0.286.
In the case of B2, the “Fold Change” value is reported as 0.5201 and the “Log (Fold Change)” value is reported as -0.2839.
In the case of B3, the “Fold Change” value is reported as 0.5221 and the “Log (Fold Change)” value is reported as -0.2822.
With B4 the “Fold Change” value was 0.5286 and the “Log (Fold Change)” value was -0.2769.
B5 was tested, and the “Fold Change” value was 0.5261 and the “Log (Fold Change)” value was -0.279.
For B6, the “Fold Change” value was 0.5228 and the “Log (Fold Change)” value was -0.2816.
For B7, the “Fold Change” value was 0.5207 and the “Log (Fold Change)” value was -0.2834.

Same assay, conditions: SWATH-MS, akirin2 KO vs WT HL60 cells; over-represented in KO
For B8, the “Fold Change” value was 1.486 and the “Log (Fold Change)” value was 0.1721.
In the case of B9, the “Fold Change” value is reported as 4.777 and the “Log (Fold Change)” value is reported as 0.6792.
